Test results from paper PMC5042403, “Arabidopsis CaM1 and CaM4 Promote Nitric Oxide Production and Salt Resistance by Inhibiting S-Nitrosoglutathione Reductase via Direct Binding” (PLoS Genetics, 2016).

Target: T1, GST-GSNOR (GST-tagged full-length GSNOR) (Arabidopsis thaliana, UniProt Q96533 1-379)
T1 construct: Arabidopsis thaliana S-nitrosoglutathione reductase (GSNOR, At5g43940), full-length cDNA; source: E. coli BL21, purified
Assay: far-Western, overlay or dot blot; 1 μg of each purified GST fusion protein separated by 10% SDS-PAGE and transferred to a PVDF membrane; blot probed with 1 μg CaM4-His in 10 ml TBST with 0.1 mM CaCl2 (or 0.1 mM EGTA, with which the binding became weaker); detected with anti-His antibody
Settings: both partners purified

T1 sequence (Q96533 whole entry): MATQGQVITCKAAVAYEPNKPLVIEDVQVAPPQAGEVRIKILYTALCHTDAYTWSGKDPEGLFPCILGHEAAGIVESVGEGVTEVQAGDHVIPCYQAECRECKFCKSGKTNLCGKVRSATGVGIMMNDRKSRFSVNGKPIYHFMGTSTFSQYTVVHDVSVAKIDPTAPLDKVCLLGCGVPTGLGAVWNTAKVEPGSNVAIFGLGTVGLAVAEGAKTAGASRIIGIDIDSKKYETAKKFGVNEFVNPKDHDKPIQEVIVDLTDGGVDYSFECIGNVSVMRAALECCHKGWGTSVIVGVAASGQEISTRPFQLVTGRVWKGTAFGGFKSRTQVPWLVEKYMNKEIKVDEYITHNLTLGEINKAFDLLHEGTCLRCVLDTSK

binding result: binds
B1: CaM4-His (natural protein)
chain: not shown
notes: Arabidopsis thaliana calmodulin 4 (AtCaM4, At1g66410); AtCaM1 and AtCaM4 encode the same protein; also called CaM-His; AtCaM4; source: E. coli BL21, purified; not shown: His6, C-terminal, kept
